According to publication PMC5596342, “Activity-Related Conformational Changes in D,D-Carboxypeptidases Revealed by In Vivo Periplasmic Förster Resonance Energy Transfer Assay in Escherichia coli” (mBio, 2017):
Positions count from the first letter of the chain named. Names may count otherwise.

B1: PBP6a (D,D-carboxypeptidase, dacC), fusions mNG-PBP6a and mCh-PBP6a (enzyme, Escherichia coli, UniProt P08506 28-400, looked up)
chain: AEQTVEAPSVDARAWILMDYASGKVLAEGNADEKLDPASLTKIMTSYVVGQALKADKIKLTDMVTVGKDAWATGNPALRGSSVMFLKPGDQVSVADLNKGVIIQSGNDACIALADYVAGSQESFIGLMNGYAKKLGLTNTTFQTVHGLDAPGQFSTARDMALLGKALIHDVPEEYAIHKEKEFTFNKIRQPNRNRLLWSSNLNVDGMKTGTTAGAGYNLVASATQGDMRLISVVLGAKTDRIRFNESEKLLTWGFRFFETVTPIKPDATFVTQRVWFGDKSEVNLGAGEAGSVTIPRGQLKNLKASYTLTEPQLTAPLKKGQVVGTIDFQLNGKSIEQRPLIVMENVEEGGFFGRVWDFVMMKFHQWFGSWFS
notes: PBP6a (dacC) of Escherichia coli; construct details in Text S7 and S8; One molecule for the two differently tagged copies; also called FP-PBP6a; source: E. coli, expressed from plasmids pSAV057 and pTHV037 (15 µM IPTG), in the periplasm of fixed cells; not shown: mNeonGreen (donor copy) or mCherry (acceptor copy), N-terminal, kept
B2: PBP6a^S66G active-site mutant, fusions mNG-PBP6a^S66G and mCh-PBP6a^S66G (enzyme, Escherichia coli, UniProt P08506 28-400, looked up)
chain: B1 chain with S39G
notes: PBP6a (dacC) of Escherichia coli with the active-site serine 66 changed to glycine; One molecule for the two differently tagged copies; source: E. coli, expressed from plasmids pSAV057 and pTHV037, in the periplasm of fixed cells; not shown: mNeonGreen (donor copy) or mCherry (acceptor copy), N-terminal, kept
B3: PBP5 (D,D-carboxypeptidase, dacA), fluorescent-protein fusions mNG-PBP5 and mCh-PBP5 (enzyme, Escherichia coli, UniProt P0AEB2 30-403, looked up)
chain: DDLNIKTMIPGVPQIDAESYILIDYNSGKVLAEQNADVRRDPASLTKMMTSYVIGQAMKAGKFKETDLVTIGNDAWATGNPVFKGSSLMFLKPGMQVPVSQLIRGINLQSGNDACVAMADFAAGSQDAFVGLMNSYVNALGLKNTHFQTVHGLDADGQYSSARDMALIGQALIRDVPNEYSIYKEKEFTFNGIRQLNRNGLLWDNSLNVDGIKTGHTDKAGYNLVASATEGQMRLISAVMGGRTFKGREAESKKLLTWGFRFFETVNPLKVGKEFASEPVWFGDSDRASLGVDKDVYLTIPRGRMKDLKASYVLNSSELHAPLQKNQVVGTINFQLDGKTIEQRPLVVLQEIPEGNFFGKIIDYIKLMFHHWFG
notes: PBP5 (dacA) of Escherichia coli; the FP is fused to the N terminus; construct details in Text S7 and S8; One molecule for the two differently tagged copies (mNG-PBP5 and mCh-PBP5), each chain carrying only one of the two fluorescent proteins; PDB 5J8X is a soluble form that lacks the C-terminal helix; also called FP-PBP5; source: E. coli, expressed from plasmid pSAV057 or pTHV037 (15 µM IPTG), in …
B4: PBP5^S44G active-site mutant, fusions mNG-PBP5^S44G and mCh-PBP5^S44G (enzyme, Escherichia coli, UniProt P0AEB2 30-403, looked up)
chain: B3 chain with S44G
notes: PBP5 (dacA) of Escherichia coli with the active-site change of Ser to Gly at position 44; One molecule for the two differently tagged copies; also called FP-PBP5^S44G; source: E. coli ΔdacA strain, expressed from plasmids pSAV057 and pTHV037, in the periplasm of fixed cells; not shown: mNeonGreen (donor copy) or mCherry (acceptor copy), N-terminal, kept
B5: PBP6b^S63G active-site mutant, fusions mNG-PBP6b^S63G and mCh-PBP6b^S63G (enzyme, Escherichia coli, UniProt P33013 22-388, looked up)
chain: AENIPFSPQPPEIHAGSWVLMDYTTGQILTAGNEHQQRNPAGLTKLMTGYVVDRAIDSHRITPDDIVTVGRDAWAKDNPVFVGSSLMFLKEGDRVSVRDLSRGLIVDSGNDACVALADYIAGGQRQFVEMMNNYAEKLHLKDTHFETVHGLDAPGQHSSAYDLAVLSRAIIHGEPEFYHMYSEKSLTWNGITQQNRNGLLWDKTMNVDGLKTGHTSGAGFNLIASAVDGQRRLIAVVMGADSAKGREEEARKLLRWGQQNFTTVQILHRGKKVGTERIWYGDKENIDLGTEQEFWMVLPKAEIPHIKAKYTLDGKELTAPISAHQRVGEIELYDRDKQVAHWPLVTLESVGEGSMFSRLSDYFHHKA
notes: PBP6b (dacD) of Escherichia coli with the active-site serine 63 changed to glycine; One molecule for the two differently tagged copies; source: E. coli, expressed from plasmids pSAV057 and pTHV037, in the periplasm of fixed cells; not shown: mNeonGreen (donor copy) or mCherry (acceptor copy), N-terminal, kept

Target: the molecule itself
Test: FRET or BRET; spectrum-based periplasmic FRET (mNG donor, mCh acceptor, spectral unmixing, acceptor FRET efficiency EfA) in E. coli grown in Gb1 at 28°C, induced with 15 µM IPTG, fixed with 2.8% formaldehyde and 0.04% glutaraldehyde, measured in PBS in a spectrofluorimeter; where indicated cells treated with 2 µg/ml amdinocillin or 1 µg/ml aztreonam during induction; cut-off for interaction EfA above 1.4%

Protein	EfA (acceptor FRET efficiency) [%]
B1	3.2
B2	3.8
B3	2
B4	5.4
B5	2
